Residue numbers refer to the chain shown, from its start.
Legend:
Experiment in all cases: EMSA
BsSpo0J R79A = molecular target: T1, BsSpo0J R79A (UniProt P26497 1-282, R79A)
T1 sequence: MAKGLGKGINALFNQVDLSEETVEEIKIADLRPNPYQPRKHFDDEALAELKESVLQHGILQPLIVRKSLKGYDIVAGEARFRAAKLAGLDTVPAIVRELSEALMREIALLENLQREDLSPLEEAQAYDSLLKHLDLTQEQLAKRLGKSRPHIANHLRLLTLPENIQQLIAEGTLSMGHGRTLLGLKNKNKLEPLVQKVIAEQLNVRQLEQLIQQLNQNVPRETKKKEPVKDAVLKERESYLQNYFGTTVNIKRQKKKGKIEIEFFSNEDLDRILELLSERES

BsSpo0J R105A = molecular target: T2, BsSpo0J R105A (UniProt P26497 1-282, R105A)
T2 sequence: T1 sequence with A79R, R105A

BsSpo0J H57E = molecular target: T3, BsSpo0J H57E (UniProt P26497 1-282, H57E)
T3 sequence: T1 sequence with H57E, A79R

BsSpo0J N112S = molecular target: T4, BsSpo0J N112S (UniProt P26497 1-282, N112S)
T4 sequence: T1 sequence with A79R, N112S

BsSpo0J R80A = molecular target: T5, BsSpo0J R80A (UniProt P26497 1-282, R80A)
T5 sequence: T1 sequence with A79R, R80A

BsSpo0J M104A = molecular target: T6, BsSpo0J M104A (UniProt P26497 1-282, M104A)
T6 sequence: T1 sequence with A79R, M104A

BsSpo0J V75A = molecular target: T7, BsSpo0J V75A (UniProt P26497 1-282, V75A)
T7 sequence: T1 sequence with V75A, A79R

BsSpo0J E52R = molecular target: T8, BsSpo0J E52R (UniProt P26497 1-282, E52R)
T8 sequence: T1 sequence with E52R, A79R

BsSpo0J Q61R = molecular target: T9, BsSpo0J Q61R (UniProt P26497 1-282, Q61R)
T9 sequence: T1 sequence with Q61R, A79R

Measured: binding result

B1: 24-bp parS (dsDNA)
DNA 1: AGAATGTTCCACGTGAAACAAAGA
DNA 2: TCTTTGTTTCACGTGGAACATTCT
binds: all assays above
